In publication PMC3894786 (Cell, 2012):

How the values were obtained:
Test in all cases: LUMIER with BACON
LCK = LCK (human, UniProt P06239 1-509)
STK38 = STK38 (human, UniProt Q15208 1-465)
CDK6 = CDK6 (human, UniProt Q00534 1-326)
FGFR3 = FGFR3 (human, UniProt P22607 23-806)
Chain of FGFR3 (P22607 23-806): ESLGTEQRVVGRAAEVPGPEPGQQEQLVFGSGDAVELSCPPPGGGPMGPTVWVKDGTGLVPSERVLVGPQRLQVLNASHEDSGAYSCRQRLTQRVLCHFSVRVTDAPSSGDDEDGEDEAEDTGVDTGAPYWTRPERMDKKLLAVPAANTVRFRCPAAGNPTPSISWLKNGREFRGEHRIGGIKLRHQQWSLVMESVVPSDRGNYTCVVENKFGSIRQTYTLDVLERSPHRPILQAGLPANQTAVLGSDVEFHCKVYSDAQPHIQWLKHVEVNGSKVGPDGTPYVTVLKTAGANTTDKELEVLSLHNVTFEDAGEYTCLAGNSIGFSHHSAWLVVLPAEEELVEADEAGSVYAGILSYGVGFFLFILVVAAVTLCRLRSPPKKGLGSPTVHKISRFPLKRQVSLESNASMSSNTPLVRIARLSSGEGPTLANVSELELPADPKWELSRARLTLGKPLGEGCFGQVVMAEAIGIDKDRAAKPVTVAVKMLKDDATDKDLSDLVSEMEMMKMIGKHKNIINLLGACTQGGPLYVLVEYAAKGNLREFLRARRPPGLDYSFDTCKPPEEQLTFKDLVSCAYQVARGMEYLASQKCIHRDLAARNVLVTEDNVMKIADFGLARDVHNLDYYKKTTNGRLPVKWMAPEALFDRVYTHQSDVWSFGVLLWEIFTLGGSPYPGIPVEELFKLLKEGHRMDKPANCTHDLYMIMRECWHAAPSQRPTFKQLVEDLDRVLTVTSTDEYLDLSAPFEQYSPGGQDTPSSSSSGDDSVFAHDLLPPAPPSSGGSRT

Chain of STK38 (Q15208 whole entry): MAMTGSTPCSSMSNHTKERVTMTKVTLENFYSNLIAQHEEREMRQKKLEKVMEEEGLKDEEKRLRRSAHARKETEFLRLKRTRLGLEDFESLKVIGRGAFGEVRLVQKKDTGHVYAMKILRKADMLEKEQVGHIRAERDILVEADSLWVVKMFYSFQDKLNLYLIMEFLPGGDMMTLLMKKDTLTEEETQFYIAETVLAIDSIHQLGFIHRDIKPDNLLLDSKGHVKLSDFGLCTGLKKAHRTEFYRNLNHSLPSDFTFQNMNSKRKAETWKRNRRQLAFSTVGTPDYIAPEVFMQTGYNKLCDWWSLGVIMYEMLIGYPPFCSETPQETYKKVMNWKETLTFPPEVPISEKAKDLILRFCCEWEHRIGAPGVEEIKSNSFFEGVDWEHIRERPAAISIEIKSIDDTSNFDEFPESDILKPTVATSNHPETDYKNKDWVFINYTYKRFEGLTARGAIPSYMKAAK
Chain of LCK (P06239 whole entry): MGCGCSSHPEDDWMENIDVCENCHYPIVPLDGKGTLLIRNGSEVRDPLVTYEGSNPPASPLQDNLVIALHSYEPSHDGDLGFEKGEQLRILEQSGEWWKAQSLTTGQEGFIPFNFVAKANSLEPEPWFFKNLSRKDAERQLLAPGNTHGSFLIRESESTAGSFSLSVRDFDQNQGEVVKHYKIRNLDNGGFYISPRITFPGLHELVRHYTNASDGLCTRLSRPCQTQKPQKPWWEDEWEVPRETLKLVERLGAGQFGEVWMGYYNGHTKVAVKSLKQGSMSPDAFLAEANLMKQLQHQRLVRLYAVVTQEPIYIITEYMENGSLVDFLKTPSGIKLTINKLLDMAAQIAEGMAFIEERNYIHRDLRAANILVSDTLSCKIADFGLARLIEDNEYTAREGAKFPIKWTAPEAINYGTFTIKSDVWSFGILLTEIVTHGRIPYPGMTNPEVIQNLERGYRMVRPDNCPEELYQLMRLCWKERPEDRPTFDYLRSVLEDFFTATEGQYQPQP
Chain of CDK6 (Q00534 whole entry): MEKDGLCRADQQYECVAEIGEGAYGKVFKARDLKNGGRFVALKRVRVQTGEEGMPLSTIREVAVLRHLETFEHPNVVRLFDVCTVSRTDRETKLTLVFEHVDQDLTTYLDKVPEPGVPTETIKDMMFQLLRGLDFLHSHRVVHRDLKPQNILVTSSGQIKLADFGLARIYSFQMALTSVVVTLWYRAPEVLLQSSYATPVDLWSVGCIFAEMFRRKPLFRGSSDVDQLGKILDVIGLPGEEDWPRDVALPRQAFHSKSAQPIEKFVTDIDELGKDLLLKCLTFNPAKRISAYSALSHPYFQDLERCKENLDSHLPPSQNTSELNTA

half-life of dissociation after 500 nM ganetespib (LCK): ~3 min
half-life of dissociation after 500 nM ganetespib (STK38): ~3 min
half-life of dissociation after 500 nM ganetespib (CDK6): ~3 min
half-life of dissociation after 500 nM ganetespib (FGFR3): 29 min
B1: Renilla luciferase-tagged HSP90β (natural protein)
chain: not shown
